Test results taken from paper PMC3992434 (Developmental cell, 2013).

Molecular target: MBP-LDLR tail wild-type (full-length LDLR tail fused to maltose-binding protein)
Experiment: pull-down

B1: recombinant GST-His-tagged AP-1B core complex (γ, β1, μ1B, σ1) (complex)
chain 1: not shown
chain 2: MTDSKYFTTTKKGEIFELKAELNSDKKEKKKEAVKKVIASMTVGKDVSALFPDVVNCMQTDNLELKKLVYLYLMNYAKSQPDMAIMAVNTFVKDCEDPNPLIRALAVRTMGCIRVDKITEYLCEPLRKCLKDEDPYVRKTAAVCVAKLHDINAQLVEDQGFLDTLKDLISDSNPMVVANAVAALSEIAESHPSSNLLDLNPQSINKLLTALNECTEWGQIFILDCLANYMPKDDREAQSICERVTPRLSHANSAVVLSAVKVLMKFMEMLSKDLDYYGTLLKKLAPPLVTLLSAEPELQYVALRNINLIVQKRPEILKHEMKVFFVKYNDPIYVKLEKLDIMIRLASQANIAQVLAELREYATEVDVDFVRKAVRAIGRCAIKVEQSAERCVSTLLDLIQTKVNYVVQEAIVVIKDIFRKYPNKYESVIATLCENLDSLDEPEARAAMIWIVGEYAERIDNADELLESFLEGFHDKSTQVQLQLLTAFVKLFLKKPTETQELVQQVLSLATQDSDNPDLRDRGYIYWRLLSTDPVAAKEVVLAEKPLISEETDLIEPTLLDELICYIGTLASVYHKPPSAFVEG
chain 3: MSASAVFILDVKGKPLISRNYKGDVPMTEIDHFMPLLMQREEEGVLAPLLSHGRVHFLWIKHSNLYLVATTLKNANASLVYSFLYKTVEVFCEYFKELEEESIRDNFVIVYDLLDELMDFGFPQTTDSKILQEYITQQGNKLETGKSRVPPTVTNAVSWRSEGIKYKKNEVFIDVIESVNLLVNANGSVLLSEIVGTIKLKVFLSGMPELRLGLNDRVLFELTGRSKNKSVELEDVKFHQCVRLSRFDNDRTISFIPPDGDFELMSYRLSTQVKPLIWIESVIEKFSHSRVEIMVKAKGQFKKQSVANGVEISVPVPSDADSPRFKTSVGSAKYVPEKNVVIWSIKSFPGGKEYLMRAHFGLPSVETEEVEGRPPIGVKFEIPYFTVSGIQVRYMKIIEKSGYQALPWVRYITQSGDYQLRTS
chain 4: MIHFILLFSRQGKLRLQKWYITLPDKERKKITREIVQIILSRGHRTSSFVDWKELKLVYKRYASLYFCCAIENQDNELLTLEIVHRYVELLDKYFGNVCELDIIFNFEKAYFILDEFIIGGEIQETSKKIAVKAIEDSDMLQEVSTVCQTMGER
fold binding relative to AP-1A: ~5 fold
